± gives the standard error. Fewer inactive variants are shown than the library holds.
B1: glmS ribozyme (parent)
chain: AUAAAAGCGCCAGAACUACAGAAAUGUAGUUGACGAGGAGGAGGUUUAUCGAAUUUUCGGCGGAUGCCUCCAAA

How the values were obtained:
Details in all cases: with glucosamine-6-phosphate
glucosamine-6-phosphate [1] = variants of: B1; test: self-cleavage kobs at 640 uM GlcN6P; higher = faster cleavage; RNA array
Method in brief: (§1)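 Weighted Michaelis–Menten fits across concentrations supplied kcat and KM, based on kobs from one- or two-exponential decay fits to normalised per-tile medians. The data came from barcoded ribozyme variants transcribed in situ by E. coli RNA polymerase on sequenced MiSeq chips and tracked at 37 °C by a hybridised Cy3 probe. Glucosamine-6-phosphate (40 μM to 10 mM) in HEPES/KCl/Mg(OAc)2 buffer was flowed in.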

glucosamine-6-phosphate [2] = variants of: B1; test: self-cleavage kobs at 10000 uM GlcN6P; higher = faster cleavage; RNA array
Method in brief: as §1

glucosamine-6-phosphate [3] = variants of: B1; test: self-cleavage kobs at 2500 uM GlcN6P; higher = faster cleavage; RNA array
Method in brief: as §1

Row | Variant | self-cleavage kobs at 640 uM GlcN6P (glucosamine-6-phosphate [1]) [s⁻¹] | self-cleavage kobs at 10000 uM GlcN6P (glucosamine-6-phosphate [2]) [s⁻¹] | self-cleavage kobs at 2500 uM GlcN6P (glucosamine-6-phosphate [3]) [s⁻¹]
1 | A24C A52U G59A | < 1e-05 | < 1e-05 | 
2 | G37C A52C | < 1e-05 | < 1e-05 | < 1e-05
3 | C11U G60A | < 1e-05 | < 1e-05 | < 1e-05
4 | G13A C68G C71G | 0.000118 ± 5e-05 |  | 0.000141 ± 3.4e-05
5 | C16G A33U G37U C68G C71U | 8.54e-05 ± 3.1e-05 |  | 
6 | C11A A12U A36C A48C G60U G62A | < 1e-05 |  | < 1e-05
7 | U49A G59U C71G | < 1e-05 |  | 
8 | A6U C10G A53C G62U | < 1e-05 |  | < 1e-05
9 | A6C G9U A52G | < 1e-05 | < 1e-05 | 
10 | G29C U65G C67G | 0.000341 ± 0.00016 |  | 
11 | A6G G9A A39C A42U U46A A53U C68U C71G | < 1e-05 |  | 
12 | G41A G51C G63A C67A | < 1e-05 |  | 
13 | G29U G32U C58U C67A | 3.68e-05 ± 1.8e-05 |  | 8.93e-05 ± 2.6e-05
14 | U30G U56A C68G | 5.24e-05 ± 2.3e-05 |  | 
15 | G44A U65C | < 1e-05 |  | 
16 | C11G G13C G38C C58A | < 1e-05 |  | < 1e-05
17 | G29C A39C C61G | < 1e-05 |  | 
18 | C10U G35U | < 1e-05 | < 1e-05 | < 1e-05
19 | C34U C58G U65G | < 1e-05 |  | 
20 | U30C U46G C70U | 4.5e-05 ± 2e-05 |  | 
21 | A14G C34U | < 1e-05 | < 1e-05 | 
22 | A39C A42G G60C | < 1e-05 |  | < 1e-05

Row | Variant | self-cleavage kobs at 640 uM GlcN6P (glucosamine-6-phosphate [1]) [s⁻¹] | self-cleavage kobs at 10000 uM GlcN6P (glucosamine-6-phosphate [2]) [s⁻¹] | self-cleavage kobs at 2500 uM GlcN6P (glucosamine-6-phosphate [3]) [s⁻¹]
23 | C8A U54C A64C | < 1e-05 |  | < 1e-05
24 | A14C G40U A52U | < 1e-05 |  | 
25 | A14C A42G G66A | 0.000473 ± 0.00012 | 0.00177 ± 0.0006 | 
26 | A15G U47G U55G C70A | 0.000102 ± 1.7e-05 |  | 
27 | G13U G35U C50U G66C | < 1e-05 |  | 
28 | G13A G37A G66C | < 1e-05 |  | 
29 | A33C A42C U47G U56G | < 1e-05 |  | 
30 | A6C G44A G51U | < 1e-05 |  | < 1e-05
31 | G13C G43U C58G | < 1e-05 | < 1e-05 | < 1e-05
32 | A15C C16U U17A A18C C19A A36G G44U | < 1e-05 |  | 
33 | G32C A36G G37U | < 1e-05 |  | 
34 | G9U C16A G59U G60U | < 1e-05 |  | < 1e-05
35 | A14C C16A C71G | 6.58e-05 ± 2.7e-05 |  | 4.2e-05 ± 2.1e-05
36 | A36C G63A G66A | < 1e-05 |  | 
37 | A14C G32A G40U G59C | < 1e-05 |  | 
38 | G13U G35U G37U | < 1e-05 |  | 
39 | U46G A53C C67U | 7.34e-05 ± 2.7e-05 |  | 0.000252 ± 8.5e-05
40 | A14C U65A C70U | 0.000125 ± 3.2e-05 |  | 
41 | C34G A53C A64C | < 1e-05 |  | 
42 | A6U G41A G44C C67G C70G | < 1e-05 |  | < 1e-05
43 | G7U U54A | < 1e-05 | < 1e-05 | < 1e-05
44 | A12G A39G C70G | 0.00011 ± 3.5e-05 |  | 

Row | Variant | self-cleavage kobs at 640 uM GlcN6P (glucosamine-6-phosphate [1]) [s⁻¹] | self-cleavage kobs at 10000 uM GlcN6P (glucosamine-6-phosphate [2]) [s⁻¹] | self-cleavage kobs at 2500 uM GlcN6P (glucosamine-6-phosphate [3]) [s⁻¹]
45 | U31G G37C U69G | 9.22e-05 ± 3.2e-05 |  | 
46 | A36U A48C C67G | < 1e-05 |  | < 1e-05
47 | U31G A33C C50U U56C A64G | < 1e-05 |  | < 1e-05
48 | G29C U30G A33U C58U | < 1e-05 |  | < 1e-05
49 | G7C C8U | < 1e-05 |  | 
50 | A12C U30G U45C C50A A52U | < 1e-05 |  | 
51 | A52G U55G G63U | < 1e-05 |  | 0.000758 ± 0.0003
52 | G35A U54C A64C | < 1e-05 |  | 
53 | G13U G29A A33U | < 1e-05 |  | 
54 | G29A C34U G44C A53U C68U | < 1e-05 |  | 
55 | C10U A52U C67A C68A U69G | 8.14e-05 ± 3.2e-05 |  | 
56 | A6G C50G G51A | < 1e-05 |  | < 1e-05
57 | C8A A36G A42U A53G | < 1e-05 |  | < 1e-05
58 | U46A C50U U55C | < 1e-05 |  | 
59 | U30C A33G A52G | < 1e-05 |  | 
60 | G7A G43U U49G G63C A64U | < 1e-05 |  | < 1e-05
61 | C50A G51U U55C | < 1e-05 |  | < 1e-05
62 | A33G A48C C68U | < 1e-05 |  | 
63 | G9C C16G G38U U65A | < 1e-05 |  | < 1e-05
64 | C11G A12C C70U | 6.11e-05 ± 2.5e-05 |  | 8.42e-05 ± 2.9e-05
65 | A12C G29A G43U C71G | < 1e-05 |  | < 1e-05
66 | G7A A42C A52G U55A | < 1e-05 |  | < 1e-05

— the supplement of paper PMC7125110
